PMC8546545

What was measured:
[1] = target: OdhI (Oxoglutarate dehydrogenase Inhibitor), FHA substrate of PknG (Corynebacterium glutamicum) (UniProt Q8NQJ3)
[2] = target: OdhI (Oxoglutarate dehydrogenase Inhibitor), FHA substrate of PknG (Corynebacterium glutamicum) (UniProt Q8NQJ3); remark: listed apart in the source

Sequence of UniProt Q8NQJ3 (Q8NQJ3 whole entry): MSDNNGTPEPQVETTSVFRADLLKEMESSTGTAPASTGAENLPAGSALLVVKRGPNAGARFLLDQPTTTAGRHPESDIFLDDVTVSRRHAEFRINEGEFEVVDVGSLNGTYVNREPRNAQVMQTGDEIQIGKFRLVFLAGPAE

Row | kinase activity ([γ-32P]ATP) of CgPknG toward OdhI (25 μM) compared with the 17-mer peptide substrate lacking an FHA domain (330 μM) [1] | kinase activity ([γ-32P]ATP) against OdhI compared to the full-length enzyme (phosphorylation of the 17-mer peptide unaffected) [2] | Substance
1 | 45 fold | – | Ser/Thr protein kinase PknG from Corynebacterium glutamicum, full length (enzyme)
2 | – | 7 fold lower | CgPknG deletion mutant lacking residues 1 to 129 and 434 to 822 (domain or fragment)
